Data: patent US20200247901A1

Biological target: mesothelin on RH29 mesothelioma cells (V and M variant ratio 50:50) (human) (UniProt Q13421)
Experiment: cell-based or functional assay

Chain of mesothelin on RH29 mesothelioma cells (V and M variant ratio 50:50) (human) (Q13421 other isoform, or with tags, fused parts or gaps mutant limits assumed): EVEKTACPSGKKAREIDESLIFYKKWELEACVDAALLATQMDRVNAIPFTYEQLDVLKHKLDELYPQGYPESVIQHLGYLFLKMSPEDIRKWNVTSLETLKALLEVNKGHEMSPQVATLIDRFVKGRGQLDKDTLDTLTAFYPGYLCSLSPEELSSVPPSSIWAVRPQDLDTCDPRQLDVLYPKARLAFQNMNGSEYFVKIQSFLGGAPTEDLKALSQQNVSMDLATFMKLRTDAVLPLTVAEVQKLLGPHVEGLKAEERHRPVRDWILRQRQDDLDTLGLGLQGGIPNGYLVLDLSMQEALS

- decrease in mesothelin shedding from RH29 cells (ELISA of shed mesothelin, OD value): 50%
B1: 15B6 anti-mesothelin antibody (IgG2b) (antibody, V domains shown)
VH: EVQLQQSGPVLVKPGASVKISCKASGYSFTGYYMHWVRQSLVKRLEWIGRINPYTGVPSYKHNFKDKASLTVDKSSSTAYMELHSLTSEDSAVYYCARELGGYWGQGTTLTVSS
VL: QAVVTQESALTTSPGETVTLTCRSSTGAVTTGNYPNWVQEKPDHLFTGLIAGTNNRAPGVPARFSGSLIGDKAALTITGAQTEDEAIYFCALWFSSHWVFGGGTKLTVL
